Reference: publication PMC12549891, “Structural mechanisms of assembly, gating, and calmodulin modulation of human olfactory CNG channel” (Nature Communications, 2025)

B1: human CNGA2 subunit (natural protein)
chain: MTEKTNGVKSSPANNHNHHAPPAIKANGKDDHRTSSRPHSAADDDTSSELQRLADVDAPQQGRSGFRRIVRLVGIIREWANKNFREEEPRPDSFLERFRGPELQTVTTQEGDGKGDKDGEDKGTKKKFELFVLDPAGDWYYCWLFVIAMPVLYNWCLLVARACFSDLQKGYYLVWLVLDYVSDVVYIADLFIRLRTGFLEQGLLVKDTKKLRDNYIHTLQFKLDVASIIPTDLIYFAVDIHSPEVRFNRLLHFARMFEFFDRTETRTNYPNIFRISNLVLYILVIIHWNACIYYAISKSIGFGVDTWVYPNITDPEYGYLAREYIYCLYWSTLTLTTIGETPPPVKDEEYLFVIFDFLIGVLIFATIVGNVGSMISNMNATRAEFQAKIDAVKHYMQFRKVSKGMEAKVIRWFDYLWTNKKTVDEREILKNLPAKLRAEIAINVHLSTLKKVRIFHDCEAGLLVELVLKLRPQVFSPGDYICRKGDIGKEMYIIKEGKLAVVADDGVTQYALLSAGSCFGEISILNIKGSKMGNRRTANIRSLGYSDLFCLSKDDLMEAVTEYPDAKKVLEERGREILMKEGLLDENEVATSMEVDVQEKLGQLETNMETLYTRFGRLLAEYTGAQQKLKQRITVLETKMKQNNEDDYLSDGMNSPELAAADEP
notes: CNGA2, human; Expressed from a tri-cistronic construct with P2A peptides between neighbouring genes; remnants of P2A may remain at chain ends (surmise); Two copies stand in the heterotetramer; also called A2L; A2R; source: HEK293F, BacMam, tri-cistronic P2A construct, purified within the CNGA2/A4/B1b complex (anti-Flag, Strep-Tactin, SEC); not shown: Flag, N-terminal, kept
B2: human CNGA4 subunit (natural protein)
chain: MSQDTKVKTTESSPPAPSKARKLLPVLDPSGDYYYWWLNTMVFPVMYNLIILVCRACFPDLQHGYLVAWLVLDYTSDLLYLLDMVVRFHTGFLEQGILVVDKGRISSRYVRTWSFFLDLASLMPTDVVYVRLGPHTPTLRLNRFLRAPRLFEAFDRTETRTAYPNAFRIAKLMLYIFVVIHWNSCLYFALSRYLGFGRDAWVYPDPAQPGFERLRRQYLYSFYFSTLILTTVGDTPPPAREEEYLFMVGDFLLAVMGFATIMGSMSSVIYNMNTADAAFYPDHALVKKYMKLQHVNRKLERRVIDWYQHLQINKKMTNEVAILQHLPERLRAEVAVSVHLSTLSRVQIFQNCEASLLEELVLKLQPQTYSPGEYVCRKGDIGQEMYIIREGQLAVVADDGITQYAVLGAGLYFGEISIINIKGNMSGNRRTANIKSLGYSDLFCLSKEDLREVLSEYPQAQTIMEEKGREILLKMNKLDVNAEAAEIALQEATESRLRGLDQQLDDLQTKFARLLAELESSALKIAYRIERLEWQTREWPMPEDLAEADDEGEPEEGTSKDEEGRASQEGPPGPE
notes: CNGA4, human; Expressed from a tri-cistronic construct with P2A peptides between neighbouring genes; remnants of P2A may remain at chain ends (surmise); source: HEK293F, BacMam, tri-cistronic P2A construct, purified within the CNGA2/A4/B1b complex (anti-Flag, Strep-Tactin, SEC); not shown: Flag, N-terminal, kept

Tests used:
[1] = target: T1, human CNGB1b subunit (shorter CNGB1 variant, amino acids 456-1251) (human, UniProt Q14028 456-1251); test: cryo-EM structure; CNGA2/A4/B1b co-expressed with CaM, complex purified with 2 mM CaCl2 in digitonin; apo (no cAMP), closed state; focused refinement around the CLZ region; details: both partners purified
T1 construct: CNGB1b, olfactory shorter variant of human CNGB1 lacking the N-terminal GARP domain, amino acids 456-1251 of CNGB1; Expressed from a tri-cistronic construct with P2A peptides between neighbouring genes; remnants of P2A may remain at chain ends (surmise); source: HEK293F, BacMam, tri-cistronic P2A construct, purified within the CNGA2/A4/B1b complex (anti-Flag, Strep-Tactin, SEC); not shown: Flag, …
T1 sequence (Q14028 456-1251, stated change not applied): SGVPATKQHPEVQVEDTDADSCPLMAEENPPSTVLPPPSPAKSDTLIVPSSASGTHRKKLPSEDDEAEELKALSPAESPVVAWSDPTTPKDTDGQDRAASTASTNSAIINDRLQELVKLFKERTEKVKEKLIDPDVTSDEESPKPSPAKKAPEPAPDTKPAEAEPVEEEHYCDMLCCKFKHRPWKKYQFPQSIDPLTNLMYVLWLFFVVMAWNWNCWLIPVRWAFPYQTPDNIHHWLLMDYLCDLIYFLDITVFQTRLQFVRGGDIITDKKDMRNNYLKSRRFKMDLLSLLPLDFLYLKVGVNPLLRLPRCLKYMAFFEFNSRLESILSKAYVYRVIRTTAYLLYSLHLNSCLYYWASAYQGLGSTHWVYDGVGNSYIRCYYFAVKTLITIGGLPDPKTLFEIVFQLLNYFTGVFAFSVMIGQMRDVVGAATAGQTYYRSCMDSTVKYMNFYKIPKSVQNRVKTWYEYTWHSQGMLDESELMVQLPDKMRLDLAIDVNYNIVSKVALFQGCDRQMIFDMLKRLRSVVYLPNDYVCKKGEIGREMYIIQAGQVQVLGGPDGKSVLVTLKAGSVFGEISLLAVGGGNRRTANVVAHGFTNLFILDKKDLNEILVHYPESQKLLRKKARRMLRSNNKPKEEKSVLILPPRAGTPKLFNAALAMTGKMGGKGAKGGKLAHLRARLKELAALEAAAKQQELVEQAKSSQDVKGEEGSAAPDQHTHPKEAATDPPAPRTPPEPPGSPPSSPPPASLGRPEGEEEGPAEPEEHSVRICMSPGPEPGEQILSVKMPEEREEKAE

[2] = target: the molecule itself; test: as above
[3] = target: B1; test: cryo-EM structure; CNGA2/A4/B1b after removal of CaM by EGTA and SEC, incubated with 5 mM cAMP; cAMP-bound open state; details: both partners purified
[4] = target: T2, human calmodulin (human, UniProt P0DP23 1-149); test: cryo-EM structure; CNGA2/A4/B1b co-expressed with CaM, complex purified with 2 mM CaCl2 in digitonin; apo (no cAMP), closed state; focused refinement around the CLZ region; details: both partners purified
T2 construct: calmodulin, human; The purified CaM (800 nM) and the endogenous HEK293 CaM of the patch-clamp recordings are written with this molecule; also called CaM; Ca^2+/CaM; source: HEK293F, BacMam, co-expressed with CNGA2/A4/B1b, co-purified (anti-Flag, Strep-Tactin, SEC); not shown: Strep, C-terminal, kept

| binding result [1] | binding result [3] | binding result [4] | Binder | binding result [2] |
| --- | --- | --- | --- | --- |
| binds | – | – | B1 | binds |
| binds | binds | binds | B2 | – |
